These results are taken from patent US20240261333A1 (published 2024).

For one experiment, the target named is T1, FUBP3 (human, UniProt Q96I24 2-572).
T1 construct: also called NP_003925.1 (+2)
T1 sequence (looked up): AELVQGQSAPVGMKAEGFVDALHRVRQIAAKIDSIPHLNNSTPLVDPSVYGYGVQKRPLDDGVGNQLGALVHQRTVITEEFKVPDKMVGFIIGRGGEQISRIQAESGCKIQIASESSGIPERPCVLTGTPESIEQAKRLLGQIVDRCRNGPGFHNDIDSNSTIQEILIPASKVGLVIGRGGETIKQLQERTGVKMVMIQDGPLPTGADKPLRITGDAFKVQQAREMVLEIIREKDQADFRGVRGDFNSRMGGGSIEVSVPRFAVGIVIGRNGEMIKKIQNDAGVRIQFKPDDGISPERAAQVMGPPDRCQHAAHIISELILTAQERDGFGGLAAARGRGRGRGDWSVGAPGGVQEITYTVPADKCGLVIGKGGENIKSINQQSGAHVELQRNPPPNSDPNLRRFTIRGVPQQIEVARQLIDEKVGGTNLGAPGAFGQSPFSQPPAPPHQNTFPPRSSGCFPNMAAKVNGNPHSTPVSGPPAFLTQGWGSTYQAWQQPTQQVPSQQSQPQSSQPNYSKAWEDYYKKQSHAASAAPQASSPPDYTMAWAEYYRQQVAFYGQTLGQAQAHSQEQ
The experiment can be described thus: co-IP, anti-FLAG, lysate of cells with N-FLAG B3GNT2; mass spectrometry. The procedure:
(§1) Cells were plated in 10-cm cell culture dishes and grown to 60-80% confluency. For each condition, two biological replicates were harvested for co-IP. Cells were washed with PBS and 4 mL of lysis buffer (20 mM HEPES, 1% Triton X-100, 150 mM NaCl, 1 mM EDTA, and 10% glycerol) containing protease inhibitor cocktail was added. Cells were scraped and lysate was incubated at 4° C. under rotary agitation for 1 h. Lysate was centrifuged at 14,000×g for 10 min at 4° C. Supernatant was transferred to a new tube and an aliquot was taken as the input. […] For Western blots, 10 μg/mL Chicken Anti-FLAG (Aves labs ET-DY100) and IgY control (R&D Systems AB-101-C) antibodies were biotinylated (Thermo Fisher Scientific 90407) and added to the respective conditions. Lysates with antibodies were incubated at 4° C. under rotary agitation overnight. For each mL of lysate, 50 μL of Pierce Protein A/G Magnetic Beads (Mass spectrometry; Thermo Fisher Scientific 88803) or Pierce Streptavidin Magnetic Beads (Western blot; Thermo Fisher Scientific 88817) was washed twice with lysis buffer. Lysates with antibodies were added to the beads and incubated at 4° C. under rotary agitation for 4 h. Beads were washed with lysis buffer 3 times and resuspended in lysis buffer for storage.
(§2) Magnetic beads were resuspended in 100 mM Tris pH 7.8, reduced, alkylated and digested with trypsin at 37° ° C. overnight. This solution was subjected to solid phase extraction to concentrate the peptides and remove unwanted reagents followed by injection onto a Shimadzu HPLC with fraction collector. Eight fractions were collected and after concentration were injected on a Waters NanoAcquity HPLC equipped with a self-packed Aeris 3 μm C18 analytical column 0.075 mm by 20 cm, (Phenomenex). Peptides were eluted using standard reverse-phase gradients. The effluent from the column was analyzed using a Thermo Orbitrap Elite mass spectrometer (nanospray configuration) operated in a data dependent manner for 54 minutes. The resulting fragmentation spectra were correlated against the known database using Proteome Discover 1.4 (Thermo Fisher Scientific).

The next experiment concerns the target T2, RBM39 (human, UniProt Q14498-3 2-508, limits assumed).
T2 construct: also called NP_001310351.1 (+3)
T2 sequence (looked up): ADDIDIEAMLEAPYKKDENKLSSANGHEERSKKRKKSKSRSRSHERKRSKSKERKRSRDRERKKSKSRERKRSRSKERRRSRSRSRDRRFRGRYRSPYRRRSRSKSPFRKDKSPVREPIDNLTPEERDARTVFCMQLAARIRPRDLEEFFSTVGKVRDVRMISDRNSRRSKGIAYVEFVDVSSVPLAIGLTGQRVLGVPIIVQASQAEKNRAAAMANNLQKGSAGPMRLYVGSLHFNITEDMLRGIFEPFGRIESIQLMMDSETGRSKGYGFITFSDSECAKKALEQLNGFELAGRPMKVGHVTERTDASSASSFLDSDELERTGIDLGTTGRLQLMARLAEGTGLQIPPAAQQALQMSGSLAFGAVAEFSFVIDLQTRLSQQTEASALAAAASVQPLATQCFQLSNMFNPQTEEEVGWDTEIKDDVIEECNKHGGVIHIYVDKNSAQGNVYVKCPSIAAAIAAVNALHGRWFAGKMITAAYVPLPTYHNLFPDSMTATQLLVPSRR
The experiment is described as above. As for the experimental part: as §1, §2

B1: N-terminal FLAG tagged B3GNT2 (enzyme, human, UniProt Q9NY97 1-397, looked up)
chain: MSVGRRRIKLLGILMMANVFIYFIMEVSKSSSQEKNGKGEVIIPKEKFWKISTPPEAYWNREQEKLNRQYNPILSMLTNQTGEAGRLSNISHLNYCEPDLRVTSVVTGFNNLPDRFKDFLLYLRCRNYSLLIDQPDKCAKKPFLLLAIKSLTPHFARRQAIRESWGQESNAGNQTVVRVFLLGQTPPEDNHPDLSDMLKFESEKHQDILMWNYRDTFFNLSLKEVLFLRWVSTSCPDTEFVFKGDDDVFVNTHHILNYLNSLSKTKAKDLFIGDVIHNAGPHRDKKLKYYIPEVVYSGLYPPYAGGGGFLYSGHLALRLYHITDQVHLYPIDDVYTGMCLQKLGLVPEKHKGFRTFDIEEKNKNNICSYVDLMLVHSRKPQEMIDIWSQLQSAHLKC
notes: Overexpressed in cells and pulled down from the lysate with mouse anti-FLAG antibody; also called N-FLAG B3GNT2; N-term FLAG; not shown: N-terminal FLAG tag
On to B1, for which the “co-IP mass spectrometry count” value in the experiment with FUBP3 was determined as 8; with RBM39, 4.
